Measurements from paper PMC7600800.
Each block holds one molecule with its values, some of them ahead of it.

Legend:
Assay in all cases: anti-HA immunoprecipitation, SDS-PAGE and mass spectrometry
[1] = target: dnaJ homolog subfamily A member 1; settings: lysates of transfected HEK293 cells; parent: 7
[2] = target: ruvB-like 1; settings: lysates of transfected HEK293 cells; parent: 3
[3] = target: lamin-B1 isoform 1; settings: lysates of transfected HEK293 cells; parent: -
[4] = target: 78 kDa glucose-regulated protein precursor; settings: lysates of transfected HEK293 cells; parent: 39
[5] = target: heat shock 70 kDa protein 1-like; settings: lysates of transfected HEK293 cells; parent: 13
[6] = target: heat shock-related 70 kDa protein 2; settings: lysates of transfected HEK293 cells; parent: 14
[7] = target: regulator of chromosome condensation isoform c; settings: lysates of transfected HEK293 cells; parent: -
[8] = target: T1, 14-3-3, endogenous, P63104; settings: chain shown with the change; lysates of transfected HEK293 cells; parent: -
T1 chain: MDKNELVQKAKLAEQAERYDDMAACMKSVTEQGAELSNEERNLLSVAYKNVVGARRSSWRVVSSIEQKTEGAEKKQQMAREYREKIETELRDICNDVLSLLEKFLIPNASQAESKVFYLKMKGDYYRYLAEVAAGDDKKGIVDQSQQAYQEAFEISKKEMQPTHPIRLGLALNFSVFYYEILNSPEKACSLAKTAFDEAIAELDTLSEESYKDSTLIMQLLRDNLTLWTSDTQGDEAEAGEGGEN

other: number of unique peptides (unique peptides) [1]: 4
other: number of unique peptides (unique peptides) [2]: 2
other: number of unique peptides (unique peptides) [3]: 3
other: number of unique peptides (unique peptides) [4]: 34
other: number of unique peptides (unique peptides) [5]: 12
other: number of unique peptides (unique peptides) [6]: 6
other: number of unique peptides (unique peptides) [7]: 2
Molecule: HA-tagged p27 wild type (from UniProt P46527) R30A; N31A; L32A

other: number of unique peptides (unique peptides) [8]: 4
B1: HA-tagged p27 wild type, P46527 R30A; N31A; L32A (protein)
chain: MSNVRVSNGSPSLERMDARQAEHPKPSACAAAFGPVDHEELTRDLEKHCRDMEEASQRKWNFDFQNHKPLEGKYEWQEVEKGSLPEFYYRPPRPPKGACKVPAQESQDVSGSRPAAPLIGAPANSEDTHLVDPKTDPSDSQTGLAEQCAGIRKRPATDDSSTQNKRANRTEENVSDGSPNAGSVEQTPKKPGLRRRQT
